In patent US20190256864A1 (INDIANA UNIVERSITY RESEARCH AND TECHNOLOGY, published 2019):

Tests used:
[1] = system: T1, GmPBS1SCS derivative of GmPBS1a
T1 sequence: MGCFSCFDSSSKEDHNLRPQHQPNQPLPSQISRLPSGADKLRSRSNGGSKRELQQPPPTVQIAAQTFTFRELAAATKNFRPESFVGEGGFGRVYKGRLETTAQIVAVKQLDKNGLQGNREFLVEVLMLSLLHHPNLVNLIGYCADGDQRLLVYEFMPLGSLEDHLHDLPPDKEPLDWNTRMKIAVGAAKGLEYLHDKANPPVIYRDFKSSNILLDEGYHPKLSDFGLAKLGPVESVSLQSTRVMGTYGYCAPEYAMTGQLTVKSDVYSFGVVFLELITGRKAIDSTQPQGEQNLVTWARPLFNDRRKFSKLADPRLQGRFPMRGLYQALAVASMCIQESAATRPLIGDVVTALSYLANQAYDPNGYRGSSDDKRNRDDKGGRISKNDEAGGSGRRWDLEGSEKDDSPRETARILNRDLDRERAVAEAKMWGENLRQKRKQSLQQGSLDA

[2] = system: T2, GmPBS1SCS derivative of GmPBS1b
T2 sequence: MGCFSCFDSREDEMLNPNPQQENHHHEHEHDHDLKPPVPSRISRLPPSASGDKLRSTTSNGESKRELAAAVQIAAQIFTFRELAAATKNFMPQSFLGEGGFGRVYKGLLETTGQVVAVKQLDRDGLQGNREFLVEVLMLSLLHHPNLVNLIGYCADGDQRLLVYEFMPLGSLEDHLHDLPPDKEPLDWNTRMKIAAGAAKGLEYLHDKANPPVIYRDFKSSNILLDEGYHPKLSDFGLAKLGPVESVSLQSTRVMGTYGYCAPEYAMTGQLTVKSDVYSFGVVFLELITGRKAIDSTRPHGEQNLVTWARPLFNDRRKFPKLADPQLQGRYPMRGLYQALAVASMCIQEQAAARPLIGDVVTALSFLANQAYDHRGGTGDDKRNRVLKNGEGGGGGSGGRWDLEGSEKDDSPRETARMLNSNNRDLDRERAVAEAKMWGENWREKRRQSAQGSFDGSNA

[3] = system: T3, GmPBS1SCS derivative of GmPBS1c
T3 sequence: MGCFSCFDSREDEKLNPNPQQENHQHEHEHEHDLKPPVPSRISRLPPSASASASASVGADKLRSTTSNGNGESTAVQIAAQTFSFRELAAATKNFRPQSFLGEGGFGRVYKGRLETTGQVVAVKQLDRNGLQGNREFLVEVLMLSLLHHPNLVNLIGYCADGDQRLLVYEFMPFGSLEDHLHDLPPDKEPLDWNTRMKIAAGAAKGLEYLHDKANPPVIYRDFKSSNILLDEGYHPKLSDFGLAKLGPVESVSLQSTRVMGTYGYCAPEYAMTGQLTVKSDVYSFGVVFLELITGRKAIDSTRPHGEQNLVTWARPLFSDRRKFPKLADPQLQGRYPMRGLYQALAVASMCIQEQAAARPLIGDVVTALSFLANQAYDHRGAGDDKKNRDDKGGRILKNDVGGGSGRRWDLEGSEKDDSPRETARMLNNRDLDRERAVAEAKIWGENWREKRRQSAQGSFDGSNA

[4] = system: T4, Soybean mosaic virus (SMV) PBS1 decoy protein
T4 sequence: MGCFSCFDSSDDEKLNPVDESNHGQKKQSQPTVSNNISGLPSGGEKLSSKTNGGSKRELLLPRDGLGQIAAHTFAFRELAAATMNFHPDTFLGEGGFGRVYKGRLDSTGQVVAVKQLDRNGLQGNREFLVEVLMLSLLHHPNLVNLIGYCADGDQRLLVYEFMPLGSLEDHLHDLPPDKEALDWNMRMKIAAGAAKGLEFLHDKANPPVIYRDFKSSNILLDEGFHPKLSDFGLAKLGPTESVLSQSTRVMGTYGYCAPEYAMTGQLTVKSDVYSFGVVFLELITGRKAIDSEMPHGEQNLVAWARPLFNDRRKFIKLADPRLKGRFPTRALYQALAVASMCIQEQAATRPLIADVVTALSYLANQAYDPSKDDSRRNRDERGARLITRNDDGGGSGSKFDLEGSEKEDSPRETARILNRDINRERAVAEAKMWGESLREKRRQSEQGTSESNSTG

[5] = system: T5, Wheat streak mosaic virus (WSMV) PBS1 decoy protein
T5 sequence: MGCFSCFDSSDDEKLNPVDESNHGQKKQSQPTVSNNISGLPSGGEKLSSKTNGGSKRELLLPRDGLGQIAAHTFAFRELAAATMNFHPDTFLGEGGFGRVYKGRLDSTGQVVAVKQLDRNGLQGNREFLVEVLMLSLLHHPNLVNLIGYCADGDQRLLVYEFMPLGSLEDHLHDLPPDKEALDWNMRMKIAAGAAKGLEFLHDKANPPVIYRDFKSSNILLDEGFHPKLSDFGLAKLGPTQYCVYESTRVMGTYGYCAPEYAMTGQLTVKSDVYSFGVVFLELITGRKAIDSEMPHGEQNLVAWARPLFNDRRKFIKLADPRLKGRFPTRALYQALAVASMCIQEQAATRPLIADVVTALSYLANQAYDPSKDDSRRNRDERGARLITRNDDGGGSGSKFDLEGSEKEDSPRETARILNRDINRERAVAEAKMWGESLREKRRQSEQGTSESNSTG

sYFP:LTI6b = biological target: T6, sYFP:LTI6b (Arabidopsis thaliana, UniProt Q9ZNS6 1-54); experiment: co-immunoprecipitation (GFP-Trap beads, anti-HA blot) after transient co-expression in N. benthamiana
T6 construct: Negative control in the co-immunoprecipitation; also called sYFP:LTI6b fusion protein; plasma membrane-localized negative control; not shown: N-terminal super yellow fluorescent protein (sYFP)
T6 sequence (looked up): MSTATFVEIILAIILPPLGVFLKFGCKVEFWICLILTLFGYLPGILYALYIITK
Protocol: To determine whether PBR1.c is activated by sensing cleavage of PBS1 proteins, co-immunoprecipitation (co-IP) analyses of PBR1.c with HvPBS1-1:HA, HvPBS1-2:HA, AtPBS1:HA, or NbPBS1:HA was performed. As a positive control, AtPBS1:HA was co-expressed with RPS5:sYFP, which forms a pre- activation complex in the absence of AvrPphB. As a negative control, the plasma membrane-localized fusion protein sYFP:LTI6b with each of the PBS1 proteins (Cutler et al., 2000). […] NbPBS1:HA also immunoprecipitated with PBR1.c:sYFP (and not with sYFP:LTI6b) supporting the notion that AvrPphB-mediated cleavage of NbPBS1 activates PBR1.c-dependent HR in N. benthamiana. Though all of the PBS1 proteins immunoprecipitated with PBR1.c:sYFP, PBR1.c:sYFP preferentially interacted with HvPBS1-2:HA and AtPBS1:HA (FIG. 7).
For transient expression assays in N. benthamiana, we followed the protocol described by DeYoung et al. (2012) and Kim et al. (2016). Briefly, the dexamethasone-inducible constructs were transformed into Agrobacterium tumefaciens GV3101 (pMP90) strains and were streaked onto Luria-Bertani (LB) plates containing 30 μg of gentamicin sulfate per milliliter and 50 μg of kanamycin per milliliter. […]

HvPBS1-1:HA = biological target: T7, HvPBS1-1:HA
T7 chain: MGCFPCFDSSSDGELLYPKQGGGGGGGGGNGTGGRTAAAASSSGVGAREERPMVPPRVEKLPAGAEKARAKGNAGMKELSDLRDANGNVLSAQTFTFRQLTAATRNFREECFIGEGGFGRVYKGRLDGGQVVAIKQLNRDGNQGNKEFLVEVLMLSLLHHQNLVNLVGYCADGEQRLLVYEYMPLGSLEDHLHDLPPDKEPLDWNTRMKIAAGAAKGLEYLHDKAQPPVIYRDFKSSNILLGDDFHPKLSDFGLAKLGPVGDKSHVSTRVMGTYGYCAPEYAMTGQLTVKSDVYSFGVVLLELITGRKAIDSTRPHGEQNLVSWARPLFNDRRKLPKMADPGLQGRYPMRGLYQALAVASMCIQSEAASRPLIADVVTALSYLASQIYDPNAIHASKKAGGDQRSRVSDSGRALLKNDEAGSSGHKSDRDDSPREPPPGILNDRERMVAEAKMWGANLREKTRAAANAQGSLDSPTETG

HvPBS1-2:HA = biological target: T8, HvPBS1-2:HA
T8 chain: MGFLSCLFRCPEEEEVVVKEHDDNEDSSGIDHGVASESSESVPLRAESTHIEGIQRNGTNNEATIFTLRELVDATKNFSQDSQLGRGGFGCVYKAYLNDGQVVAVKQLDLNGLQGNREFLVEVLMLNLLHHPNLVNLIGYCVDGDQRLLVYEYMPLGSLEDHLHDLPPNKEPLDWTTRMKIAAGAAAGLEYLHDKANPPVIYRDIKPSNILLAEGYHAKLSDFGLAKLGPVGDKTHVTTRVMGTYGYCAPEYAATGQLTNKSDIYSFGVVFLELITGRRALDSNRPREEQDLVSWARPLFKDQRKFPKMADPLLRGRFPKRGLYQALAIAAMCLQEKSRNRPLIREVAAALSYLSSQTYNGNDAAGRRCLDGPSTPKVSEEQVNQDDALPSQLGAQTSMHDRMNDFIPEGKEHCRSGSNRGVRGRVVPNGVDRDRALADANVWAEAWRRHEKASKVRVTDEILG

In the case of Soybean mosaic virus (SMV) NIa protease, the “cleavage of the substrate (transient coexpression in N. benthamiana)” value [1] is reported as “Transient coexpression of the modified GmPBS1 constructs along with the SMV NIa protease in N. benthamiana resulted in NIa-mediated cleavage of GmPBS1SCS”, the “cleavage of the substrate (transient coexpression in N. benthamiana)” value [2] is reported as “Transient coexpression of the modified GmPBS1 constructs along with the SMV NIa protease in N. benthamiana resulted in NIa-mediated cleavage of GmPBS1SCS” and the “cleavage of the substrate (transient coexpression in N. benthamiana)” value [3] is reported as “Transient coexpression of the modified GmPBS1 constructs along with the SMV NIa protease in N. benthamiana resulted in NIa-mediated cleavage of GmPBS1SCS”. The “cleavage of the substrate (immunoblot after transient co-expression in N. benthamiana)” value [4] was “demonstrating cleavage of the decoy PBS1 proteins only by the matching proteases” and the “cleavage of the substrate (immunoblot after transient co-expression in N. benthamiana); not cleaved by the non-matching protease” value [5] was “demonstrating cleavage of the decoy PBS1 proteins only by the matching proteases”.

In the case of “Wheat streak mosaic virus (WSMV) NIa protease”, the “cleavage of the substrate (immunoblot after transient co-expression in N. benthamiana); not cleaved by the non-matching protease” value [4] is reported as “demonstrating cleavage of the decoy PBS1 proteins only by the matching proteases” and the “cleavage of the substrate (immunoblot after transient co-expression in N. benthamiana)” value [5] is reported as “demonstrating cleavage of the decoy PBS1 proteins only by the matching proteases”.

B1: HvPBS1-2:HA (enzyme, not shown: small tags and cut ends)
chain: MGFLSCLFRCPEEEEVVVKEHDDNEDSSGIDHGVASESSESVPLRAESTHIEGIQRNGTNNEATIFTLRELVDATKNFSQDSQLGRGGFGCVYKAYLNDGQVVAVKQLDLNGLQGNREFLVEVLMLNLLHHPNLVNLIGYCVDGDQRLLVYEYMPLGSLEDHLHDLPPNKEPLDWTTRMKIAAGAAAGLEYLHDKANPPVIYRDIKPSNILLAEGYHAKLSDFGLAKLGPVGDKTHVTTRVMGTYGYCAPEYAATGQLTNKSDIYSFGVVFLELITGRRALDSNRPREEQDLVSWARPLFKDQRKFPKMADPLLRGRFPKRGLYQALAIAAMCLQEKSRNRPLIREVAAALSYLSSQTYNGNDAAGRRCLDGPSTPKVSEEQVNQDDALPSQLGAQTSMHDRMNDFIPEGKEHCRSGSNRGVRGRVVPNGVDRDRALADANVWAEAWRRHEKASKVRVTDEILG
notes: also called HORVU3Hr1G035810.1; MLOC_12866
B1: no binding (sYFP:LTI6b).

B2: AvrPphB(C98S):myc (protein)
chain: MKIGTQATSLAVLHNQESHAPQAPIAVRPEPAHAIPEIPLDLAIRPRTRGIHPFLAMTLGDKGCASSSGVSLEDDSHTQVSLSDFSVASRDVNHNNISAGLSTEWLVMSSDGDAESRMDHLDYNGEGQSRGSERHQVYNDALRAALSNDDEAPFFTASTAVIEDAGFSLRREPKTVHASGGSAQLGQTVAHDVAQSGRKHLLSLRFANVQGHAIACSCEGSQFKLFDPNLGEFQSSRSAAPQLIKGLIDHYNSLNYDVACVNEFRVS
For B2, the “cleavage of the substrate (Western blot after transient co-expression in N. benthamiana)” value (HvPBS1-1:HA) was “This did not produce any cleavage products”, the “cleavage of the substrate (Western blot after transient co-expression in N. benthamiana)” value (HvPBS1-2:HA) was “This did not produce any cleavage products” and the “cleavage of the substrate (immunoblot after transient co-expression in N. benthamiana)” value (NbPBS1:HA) was “Co-expression with AvrPphB:myc, but not the protease inactive mutant, resulted in cleavage of NbPBS1:HA”.

B3: HvPBS1-1:HA (enzyme, not shown: small tags and cut ends)
chain: MGCFPCFDSSSDGELLYPKQGGGGGGGGGNGTGGRTAAAASSSGVGAREERPMVPPRVEKLPAGAEKARAKGNAGMKELSDLRDANGNVLSAQTFTFRQLTAATRNFREECFIGEGGFGRVYKGRLDGGQVVAIKQLNRDGNQGNKEFLVEVLMLSLLHHQNLVNLVGYCADGEQRLLVYEYMPLGSLEDHLHDLPPDKEPLDWNTRMKIAAGAAKGLEYLHDKAQPPVIYRDFKSSNILLGDDFHPKLSDFGLAKLGPVGDKSHVSTRVMGTYGYCAPEYAMTGQLTVKSDVYSFGVVLLELITGRKAIDSTRPHGEQNLVSWARPLFNDRRKLPKMADPGLQGRYPMRGLYQALAVASMCIQSEAASRPLIADVVTALSYLASQIYDPNAIHASKKAGGDQRSRVSDSGRALLKNDEAGSSGHKSDRDDSPREPPPGILNDRERMVAEAKMWGANLREKTRAAANAQGSLDSPTETG
notes: also called HORVU2Hr1G070690.2; MLOC_13277
B3: no binding (sYFP:LTI6b).
